Measured values reported in doi:10.1101/2025.07.10.664194 (bioRxiv, 2025).

Target: T1, BcGabija GajA (Bacillus cereus, UniProt J8H9C1 1-578)
T1 construct: also called Bacillus cereus GajA nuclease subunit
T1 sequence: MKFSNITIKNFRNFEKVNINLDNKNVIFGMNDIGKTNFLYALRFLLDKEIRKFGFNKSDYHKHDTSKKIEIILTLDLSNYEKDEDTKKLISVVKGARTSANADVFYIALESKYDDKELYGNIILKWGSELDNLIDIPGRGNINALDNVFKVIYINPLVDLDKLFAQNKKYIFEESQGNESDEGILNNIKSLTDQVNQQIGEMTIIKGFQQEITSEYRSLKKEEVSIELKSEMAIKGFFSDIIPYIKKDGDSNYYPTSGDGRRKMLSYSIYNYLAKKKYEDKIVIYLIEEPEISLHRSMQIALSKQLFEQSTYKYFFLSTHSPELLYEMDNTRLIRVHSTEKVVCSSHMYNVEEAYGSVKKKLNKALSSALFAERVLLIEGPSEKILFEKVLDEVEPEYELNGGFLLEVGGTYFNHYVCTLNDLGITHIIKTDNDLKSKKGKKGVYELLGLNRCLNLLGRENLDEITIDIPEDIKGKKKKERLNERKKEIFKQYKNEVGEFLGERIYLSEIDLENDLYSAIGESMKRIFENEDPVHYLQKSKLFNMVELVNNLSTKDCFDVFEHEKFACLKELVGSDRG
Assay: mass photometry
Conditions: both partners purified

B1: BcGabija GajB (natural protein)
chain: MSREQIIKDGGNILVTAGAGSGKTTILVSKIEADLKENKTHYSIAAVTFTNKAAKEIEGRLGYSSRGNFIGTNDGFVESEIIRPFIKDAFGNDYPDNFTAEYFDNQFASYDKGLQVLKYQNILGTYSNPKKNFKFQLALDILKKSLVARQYIFSKYFKIFIDEYQDSDKDMHNLFMYLKDQLKIKLFIVGDPKQSIYIWRGAEPENFNGLIENSTDFNKYHLTSNFRCCQDIQNYSNLFNEETRSLIKEKNEVQNVISIADDMPISDILLKLTEEKQVLNIEAELVILVRRRNQAIEIMKELNEEGFNFIFIPQTPLDRATPNATLLKEVIKYVKNDRYSIYDLAAEIVGNLSSREIKEIQKIINELLVPNINQVLINQVLINLFAKLEITLDTREITAFTEVMMTNEFDIAFDTNEYLHKIFTVHSAKGLEFNQVIITASDYNVHYNRDTNEHYVATTRAKDKLIVIMDNKKYSDYIETLMKELKIKNIIKSI
notes: also called NTPase subunit of BcGabija
stoichiometry N: 1 GajA:GajB (4:4)
